Assay results as given in US10463752B2, “Protein polymer gold nanoparticle hybrid materials for small molecule delivery” (New York University, priority 2016, dated 2019).
Several values for one entry are separate records, joined by “and”; a condition that tells them apart may be missing. Equal values may be shown once. Marks after values point to notes of the source that are not given here.

Key:
[1] = test system: MCF7 human breast cancer cells; test: MTS cell viability assay; settings: absorbance at 490 nm
Method: (§1) Cell viability measurements were carried out using a CellTiter 96® Aqueous One solution kit (Promega) in a 96-well plate, seeded 1×10^4 cells/well. After 24 hours, the cells were treated for 4 hours or 24 hours with protein polymers and P•G NPs with and without curcumin along with control treatments of curcumin alone and media alone. After the treatment periods, 20 μL [3-(4,5-dimethylthiazol-2-yl)-5-(3-carboxymethoxyphenyl)-2-(4-sulfophenyl)-2H-tetrazolium (MTS) was added to each well, followed by incubation at 37° C. for 3 hours. The plate was centrifuged for 3 minutes at 2500 rpm and then subjected to absorbance measurements at 490 nm (Tables 3 and 4).

[2] = test system: MCF7 human breast cancer cells; test: Curcumin uptake in MCF7 cells by fluorescence microscopy; type: cell-based; settings: complexed with curcumin
Method: MCF7 human breast cancer cells were obtained from ATCC and maintained at 37° C., 5% CO2 as monolayer cultures in Dulbecco's modified Eagle's medium (DMEM with high glucose containing phenol red) supplemented with 10% (v/v) fetal bovine serum (FBS), gentamicin (50 μg/mL), 100 U penicillin/100 μg/mL streptomycin. Because the loading capacities of curcumin for P•GNP nanocomposites are much larger than those of the proteins in the absence of GNP we prepared two corresponding curcumin controls that represented the bound curcumin levels in P•G NPs and protein polymers alone (Table 2). To avoid any uptake of unbound curcumin by the cells directly, we limited the curcumin amount that is equivalent to the loading capacity of 26 μM of protein samples in 50 mM sodium phosphate buffer, pH 7.4 and allowed to bind for 2 hours at room temperature prior to cell culture studies.
Multiple sets of experiments were performed to record curcumin uptake by image acquisition using FITC filter (Em: 520 nm) under fluorescence microscopy and direct measurement of curcumin uptake in cell extractions. Cells were grown directly on 24-well culture plates (8×10^4 cells/well) for cell extraction or on cover slips for microscopy. After 24 hours of cell plating, cells were treated for 4 or 24 hours with different combination of proteins with or without GNP and/or curcumin. For all the treatments, the total volume of samples with DMEM in 24-well plates was kept constant at 300 μL with proteins prepared at 10 μM concentrations. The ratio of sample amount to number of cells was also kept constant. The results are representative of two such independent sets of experiments.
For fluorescent imaging of curcumin uptake, cells on coverslips were fixed with 300 μL 4% paraformaldehyde solution in DPBS for 20 minutes at room temperature on a plate rocker. […] Cells were viewed using fluorescence microscope IX71 (Olympus) using DAPI (for cell nuclei) and FITC (for curcumin uptake) at 60× magnification while keeping the exposure time for the FITC images constant at 200 milliseconds.

[3] = Curcumin loading capacity (small molecule loading); type: physicochemical; settings: ratio of curcumin to protein or P•G NP; 2 hours incubation at room temperature
Method: Curcumin (6.5 nmol final concentration from 3 mM stock solution in HPLC grade methanol) was incubated with 1.3 nmol of CE1-His6, E1C-His6, CE1-His6•GNP and E1C-His6•GNP at room temperature for 2 hours and loaded onto Bio-Rad Spin6 columns packed with Sephadex G-25 medium beads 0.5 cm high. Bound protein polymer•curcumin complexes (in the presence or absence of GNP) were eluted by size, washed 3 times in 50 μL sodium phosphate buffer, followed by centrifugation for 5 min at 14000 rpm. The beads containing unbound curcumin were collected separately and resuspended back to buffer for solvent extraction. Both bound and unbound curcumin were extracted by adding 150 μL ethyl acetate and quantitatively determined by measuring absorbance at 416 nm. Absorbance was measured in a Hellma 105.201-QS type cuvette (10 mm light path, 100 μL sample) on SpectraMax M2. This binding study was performed on at least three different protein sample preparations to calculate the average loading capacities with errors represented as the standard deviation of the three trials.

[4] = test system: MCF7 human breast cancer cells
Method: as §1

[5] = Curcumin release over time; type: physicochemical; settings: by 8.25 hrs, room temperature, 50 mM phosphate buffer pH 7.4
Method: Release of curcumin from CE1-His6, E1C-His6, CE1-His6•GNP and E1C-His6•GNP was then investigated. Curcumin (26 nmol) was added to 200 μL of 26 μM (5.2 nmol) protein sample. After 2 hours of incubation at room temperature, the solution was adjusted to contain a final concentration of 0.5 M NaCl. The protein polymer•curcumin complex (in the presence or absence of GNP) were incubated at 45° C. (well above the TO for 30 min and centrifuged to separate protein polymer•curcumin complex from excess curcumin. The pellets were resuspended in 200 μL of 50 mM phosphate buffer, pH 7.4 and kept at room temperature in the dark for release. After 10 min, the suspensions were centrifuged and the supernatant was removed and used for extraction assessment of released curcumin. This resuspension-incubation-spin-release cycle was repeated for the next eight hours at the following time points: 10, 25, 55, 85, 135, 195, 255, 315 and 495 min. Release study was performed on two different protein sample preparations to obtain the averaged release profile. Error bars on the release data represented standard error of the two sample preparations.

[6] = Turbidometry, inverse temperature transition (Tt); type: physicochemical; settings: midpoint of turbidity at 800 nm
Method: The turbidometry, or inverse temperature transition (Tt), was determined via UV-Vis Spectrophotometer Cary-50 (Agilent Technology) equipped with TC 125 temperature controller (Quantum Northwest) in Type 21 quartz cuvette with 10 mm path length (Buck Science) by monitoring the change in turbidity at 800 nm from 25° C. to 80° C. at a rate of 1° C./min. Protein stock solutions for Tt measurement were prepared in 0.2 mg/mL (or 14.3 μM and 14.4 μM for CE1-His6 and E1C-His6, respectively) in 10 mM sodium phosphate buffer, pH 8.0. In order to bring Tt value of all the samples into instrument operation range, highly concentrated NaCl solution was added prior to Tt measurement (Table 1). Measurements were performed on at least two different protein sample preps to calculate the average Tt. The Tt was determined at the midpoint of the normalized turbidity.

[7] = protein polymer without GNP; data from Haghpanah et al., Mol. Biosys. 2010; cited from earlier work

COc1cc(/C=C/C(=O)CC(=O)/C=C/c2ccc(O)c(OC)c2)ccc1O [curcumin]
Abs. (MTS Assay) ([1]; 4 Hour Treatment, listed as CCM1): 2.039 ± 0.00 and 1.999 ± 0.05 | Abs. (MTS Assay) ([1]; 4 Hour Treatment, listed as CCM2): 2.044 ± 0.01 and 2.025 ± 0.02 | Abs. (MTS Assay) ([1]; 24 Hour Treatment, listed as CCM1): 1.974 ± 0.01 and 2.034 ± 0.02 | Abs. (MTS Assay) ([1]; 24 Hour Treatment, listed as CCM2): 1.98 ± 0.04 and 1.999 ± 0.01 | curcumin uptake visualized by fluorescence (FITC channel) [2]: did not show any uptake

B1: E1C-His6: protein diblock polymer with N-terminal hexahistidine tag, elastin-like E1 domain then COMPcc coiled-coil C domain (SEQ ID NO: 14) (protein)
chain: MRGSHHHHHHGSKPIAASAVPGVGVPGVGVPGFGVPGVGVPGVGVPLEGSELAATATATATATATAACGDLAPQMLRELQETNAALQDVRELLRQQVKEITFLKNTVMESDASGLQAATATATATATATAVDLQPS
CCM/P molar binding ratio [3]: 0.41 ± 0.10 | cytotoxicity (MTS assays) [4]: neither the protein polymer nor P•G NPs s exhibited cytotoxicity | release of free curcumin [5]: 78.8% | Tt ([6]; 0.1818 mg/mL protein, 0.45M NaCl): 33.8 ± 2.2 °C | Size of protein particles [7]: 27.9 ± 3.7^a nm | curcumin uptake visualized by fluorescence (FITC channel) [2]: uptake albeit substantially less than the P•G NPs

B2: CE1-His6: protein diblock polymer with N-terminal hexahistidine tag, COMPcc coiled-coil C domain then elastin-like E1 domain (SEQ ID NO: 13) (protein)
chain: MRGSHHHHHHGSACELAATATATATATATAACGDLAPQMLRELQETNAALQDVRELLRQQVKEITFLKNTVMESDASGLQAATATATATATATAVDKPIAASAVPGVGVPGVGVPGFGVPGVGVPGVGVPLEGSGTGAKLN
CCM/P molar binding ratio [3]: 0.40 ± 0.06 | cytotoxicity (MTS assays) [4]: neither the protein polymer nor P•G NPs s exhibited cytotoxicity | release of free curcumin [5]: 77.0% | Tt ([6]; 0.1621 mg/mL protein, 0.946M NaCl): 55.0 ± 0.8 °C | Size of protein particles [7]: 26.0 ± 3.0^a nm | curcumin uptake visualized by fluorescence (FITC channel) [2]: uptake albeit substantially less than the P•G NPs
